Source: patent US20070232789A1 (UNIVERSITY OF MARYLAND BALTIMORE, published 2007)
Substitutions are numbered along the chain they refer to.

T1: A1/A3-C1-C2 heterodimer of factor VIII, plasma-derived (human, UniProt P00451 20-391; P00451 1709-2351)
T1 sequence 1: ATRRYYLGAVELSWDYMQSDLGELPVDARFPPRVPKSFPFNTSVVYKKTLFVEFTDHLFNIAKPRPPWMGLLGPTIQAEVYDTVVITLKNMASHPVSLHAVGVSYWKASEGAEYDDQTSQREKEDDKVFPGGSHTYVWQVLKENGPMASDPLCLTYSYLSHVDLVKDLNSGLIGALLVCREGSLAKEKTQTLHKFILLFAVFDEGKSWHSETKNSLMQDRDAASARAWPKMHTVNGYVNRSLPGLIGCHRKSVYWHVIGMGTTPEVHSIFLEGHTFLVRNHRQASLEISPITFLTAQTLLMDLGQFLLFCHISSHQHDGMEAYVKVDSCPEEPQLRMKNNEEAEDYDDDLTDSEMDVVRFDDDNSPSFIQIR
T1 sequence 2: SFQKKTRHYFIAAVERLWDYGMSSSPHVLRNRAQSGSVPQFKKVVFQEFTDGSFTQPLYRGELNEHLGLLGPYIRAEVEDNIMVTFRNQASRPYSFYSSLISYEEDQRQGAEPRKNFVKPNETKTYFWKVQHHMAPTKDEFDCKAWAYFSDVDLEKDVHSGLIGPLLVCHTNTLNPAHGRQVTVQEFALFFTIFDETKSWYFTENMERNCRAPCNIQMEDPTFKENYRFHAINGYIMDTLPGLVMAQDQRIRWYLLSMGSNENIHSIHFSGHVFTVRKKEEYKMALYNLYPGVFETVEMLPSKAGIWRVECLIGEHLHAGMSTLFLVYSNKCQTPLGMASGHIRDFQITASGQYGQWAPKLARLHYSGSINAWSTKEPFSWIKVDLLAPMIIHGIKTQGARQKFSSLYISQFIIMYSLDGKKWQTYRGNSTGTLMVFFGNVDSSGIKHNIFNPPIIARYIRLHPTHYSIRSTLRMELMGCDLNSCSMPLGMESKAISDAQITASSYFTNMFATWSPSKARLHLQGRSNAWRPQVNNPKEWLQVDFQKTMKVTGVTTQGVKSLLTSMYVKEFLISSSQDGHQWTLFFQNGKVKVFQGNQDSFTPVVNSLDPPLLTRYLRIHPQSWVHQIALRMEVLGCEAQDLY

B1: recombinant A2 mutant #10 (Arg-489 to Ala) (other)
chain: SGAKKHPKTWVHYIAAEEEDWDYAPLVLAPDDRSYKSQYLNNGPQRIGRKYKKVRFMAYTDETFKTREAIQHESGILGPLLYGEVGDTLLIIFKNQASRPYNIYPHGITDVRPLYSARLPKGVKHLKDFPILPGEIFKYKWTVTVEDGPTKSDPRCLTRYYSSFVNMERDLASGLIGPLLICYKESVDQRGNQIMSDKRNVILFSVFDENRSWYLTENIQRFLPNPAGVQLEDPEFQASNIMHSINGYVFDSLQLSVCLHEVAYWYILSIGAQTDFLSVFFSGYTFKHKMVYEDTLTLFPFSGETVFMSMENPGLWILGCHNSDFRNRGMTALLKVSSCDKNTGDYYEDSYEDISAYLLSKNNAIEPR
notes: hx-A2 form from Sf9 cells
B2: recombinant A2 mutant #8 (Tyr-487 to Ala) (other)
chain: B1 chain with Y115A, A117R
notes: hx-A2 form from Sf9 cells
B3: recombinant wild-type A2 domain of human factor VIII (hx-A2) (other)
chain: B1 chain with A117R
notes: Secreted from Sf9 cells as hx-A2 and purified on mAb 8860; Removal of the tag is not reported; also called wt-A2; recombinant A2; not shown: N-terminal hx leader (6xHis tag, vector-derived linker, factor Xa site)
B4: recombinant A2 mutant #12 (Leu-491 to Ala) (other)
chain: B1 chain with A117R, L119A
notes: hx-A2 form from Sf9 cells
B5: recombinant A2 mutant #18 (Lys-512 to Ala) (other)
chain: B1 chain with A117R, K140A
notes: hx-A2 form from Sf9 cells; not shown: N-terminal hx leader (6xHis tag, vector-derived linker, factor Xa site)
B6: recombinant A2 mutant #19 (Lys-523 to Ala) (other)
chain: B1 chain with A117R, K151A
notes: as for B5
B7: recombinant A2 mutant #16 (His-499 to Ala as printed in Tables 1 and 2; Lys^499 in the text) (other)
chain: B1 chain with A117R, K127A
notes: hx-A2 form from Sf9 cells; also called Lys^499 Ala mutant; not shown: N-terminal hx leader (6xHis tag, vector-derived linker, factor Xa site)
B8: recombinant A2 mutant #14 (Lys-496 to Ala) (other)
chain: B1 chain with A117R, K124A
notes: hx-A2 form from Sf9 cells
B9: recombinant A2 mutant #13 (Lys-493 to Ala) (other)
chain: B1 chain with A117R, K121A
notes: hx-A2 form from Sf9 cells
B10: recombinant A2 mutant #15 (His-497 to Ala) (other)
chain: B1 chain with A117R, H125A
notes: hx-A2 form from Sf9 cells
B11: recombinant A2 mutant #1 (Lys-376 to Ala) (other)
chain: B1 chain with K4A, A117R
notes: as for B5
B12: recombinant A2 mutant #11 (Arg-490 to Ala) (other)
chain: B1 chain with A117R, R118A
notes: hx-A2 form from Sf9 cells
B13: recombinant A2 mutant #20 (Lys-556 to Ala) (other)
chain: B1 chain with A117R, K184A
notes: as for B5
B14: recombinant A2 mutant #17 (Lys-510 to Ala) (other)
chain: B1 chain with A117R, K138A
notes: as for B5
B15: recombinant A2 mutant #9 (Ser-488 to Ala) (other)
chain: B1 chain with S116A, A117R
notes: hx-A2 form from Sf9 cells
B16: 39 kDa receptor-associated protein (RAP), human, expressed in bacteria (other)
chain: YSREKNQPKPSPKRESGEEFRMEKLNQLWEKAQRLHLPPVRLAELHADLKIQERDELAWKKLKLDGLDEDGEKEARLIRNLNVILAKYGLDGKKDARQVTSNSLSGTQEDGLDDPRLEKLWHKAKTSGKFSGEELDKLWREFLHHKEKVHEYNVLLETLSRTEEIHENVISPSDLSDIKGSVLHSRHTELKEKLRSINQGLDRLRRVSHQGYSTEAEFEEPRVIDLWDLAQSANLTDKELEAFREELKHFEAKIEKHNHYQKQLEIAHEKLRHAESVGDGERVSRSREKHALLEGRTKELGYTVKKHLQDLSGRISRARHNEL
notes: also called α2 macroglobulin receptor-associated protein

What follows are binders tested against T2, low-density lipoprotein receptor-related protein (LRP), purified (human, UniProt Q07954 20-4544) (assay: SPR, BIAcore 3000).
T2 construct: mature; also called low density lipoprotein receptor-related protein/α2-macroglobulin receptor; LRP receptor
Excerpt: (§1) Surface plasmon resonance-based binding assay. […] This system allows real-time biomolecular interaction analysis (BIA) using surface plasmon resonance (SPR) technology. One molecule (the ligand) is usually immobilized on the surface of the sensor chip; the second molecule (the analyte) in solution is passed over the chip under conditions of continuous flow, and the amount of the bound analyte is detected by the system. SPR is a non-invasive optical measuring technique which measures the mass concentration of biomolecules in close proximity to the sensor chip where association and dissociation of biomolecular complexes occurs. […] The association (kₒₙ) and dissociation (koff) rate constants were determined using BIAevaluation Version 3.1 software. The data were corrected for bulk refraction index changes and fitted to a one-site binding model by a non-linear regression analysis Equilibrium dissociation constants (KD) were calculated from the ratio koff/kₒₙ.

T2 sequence (Q07954 20-4544, form in doubt): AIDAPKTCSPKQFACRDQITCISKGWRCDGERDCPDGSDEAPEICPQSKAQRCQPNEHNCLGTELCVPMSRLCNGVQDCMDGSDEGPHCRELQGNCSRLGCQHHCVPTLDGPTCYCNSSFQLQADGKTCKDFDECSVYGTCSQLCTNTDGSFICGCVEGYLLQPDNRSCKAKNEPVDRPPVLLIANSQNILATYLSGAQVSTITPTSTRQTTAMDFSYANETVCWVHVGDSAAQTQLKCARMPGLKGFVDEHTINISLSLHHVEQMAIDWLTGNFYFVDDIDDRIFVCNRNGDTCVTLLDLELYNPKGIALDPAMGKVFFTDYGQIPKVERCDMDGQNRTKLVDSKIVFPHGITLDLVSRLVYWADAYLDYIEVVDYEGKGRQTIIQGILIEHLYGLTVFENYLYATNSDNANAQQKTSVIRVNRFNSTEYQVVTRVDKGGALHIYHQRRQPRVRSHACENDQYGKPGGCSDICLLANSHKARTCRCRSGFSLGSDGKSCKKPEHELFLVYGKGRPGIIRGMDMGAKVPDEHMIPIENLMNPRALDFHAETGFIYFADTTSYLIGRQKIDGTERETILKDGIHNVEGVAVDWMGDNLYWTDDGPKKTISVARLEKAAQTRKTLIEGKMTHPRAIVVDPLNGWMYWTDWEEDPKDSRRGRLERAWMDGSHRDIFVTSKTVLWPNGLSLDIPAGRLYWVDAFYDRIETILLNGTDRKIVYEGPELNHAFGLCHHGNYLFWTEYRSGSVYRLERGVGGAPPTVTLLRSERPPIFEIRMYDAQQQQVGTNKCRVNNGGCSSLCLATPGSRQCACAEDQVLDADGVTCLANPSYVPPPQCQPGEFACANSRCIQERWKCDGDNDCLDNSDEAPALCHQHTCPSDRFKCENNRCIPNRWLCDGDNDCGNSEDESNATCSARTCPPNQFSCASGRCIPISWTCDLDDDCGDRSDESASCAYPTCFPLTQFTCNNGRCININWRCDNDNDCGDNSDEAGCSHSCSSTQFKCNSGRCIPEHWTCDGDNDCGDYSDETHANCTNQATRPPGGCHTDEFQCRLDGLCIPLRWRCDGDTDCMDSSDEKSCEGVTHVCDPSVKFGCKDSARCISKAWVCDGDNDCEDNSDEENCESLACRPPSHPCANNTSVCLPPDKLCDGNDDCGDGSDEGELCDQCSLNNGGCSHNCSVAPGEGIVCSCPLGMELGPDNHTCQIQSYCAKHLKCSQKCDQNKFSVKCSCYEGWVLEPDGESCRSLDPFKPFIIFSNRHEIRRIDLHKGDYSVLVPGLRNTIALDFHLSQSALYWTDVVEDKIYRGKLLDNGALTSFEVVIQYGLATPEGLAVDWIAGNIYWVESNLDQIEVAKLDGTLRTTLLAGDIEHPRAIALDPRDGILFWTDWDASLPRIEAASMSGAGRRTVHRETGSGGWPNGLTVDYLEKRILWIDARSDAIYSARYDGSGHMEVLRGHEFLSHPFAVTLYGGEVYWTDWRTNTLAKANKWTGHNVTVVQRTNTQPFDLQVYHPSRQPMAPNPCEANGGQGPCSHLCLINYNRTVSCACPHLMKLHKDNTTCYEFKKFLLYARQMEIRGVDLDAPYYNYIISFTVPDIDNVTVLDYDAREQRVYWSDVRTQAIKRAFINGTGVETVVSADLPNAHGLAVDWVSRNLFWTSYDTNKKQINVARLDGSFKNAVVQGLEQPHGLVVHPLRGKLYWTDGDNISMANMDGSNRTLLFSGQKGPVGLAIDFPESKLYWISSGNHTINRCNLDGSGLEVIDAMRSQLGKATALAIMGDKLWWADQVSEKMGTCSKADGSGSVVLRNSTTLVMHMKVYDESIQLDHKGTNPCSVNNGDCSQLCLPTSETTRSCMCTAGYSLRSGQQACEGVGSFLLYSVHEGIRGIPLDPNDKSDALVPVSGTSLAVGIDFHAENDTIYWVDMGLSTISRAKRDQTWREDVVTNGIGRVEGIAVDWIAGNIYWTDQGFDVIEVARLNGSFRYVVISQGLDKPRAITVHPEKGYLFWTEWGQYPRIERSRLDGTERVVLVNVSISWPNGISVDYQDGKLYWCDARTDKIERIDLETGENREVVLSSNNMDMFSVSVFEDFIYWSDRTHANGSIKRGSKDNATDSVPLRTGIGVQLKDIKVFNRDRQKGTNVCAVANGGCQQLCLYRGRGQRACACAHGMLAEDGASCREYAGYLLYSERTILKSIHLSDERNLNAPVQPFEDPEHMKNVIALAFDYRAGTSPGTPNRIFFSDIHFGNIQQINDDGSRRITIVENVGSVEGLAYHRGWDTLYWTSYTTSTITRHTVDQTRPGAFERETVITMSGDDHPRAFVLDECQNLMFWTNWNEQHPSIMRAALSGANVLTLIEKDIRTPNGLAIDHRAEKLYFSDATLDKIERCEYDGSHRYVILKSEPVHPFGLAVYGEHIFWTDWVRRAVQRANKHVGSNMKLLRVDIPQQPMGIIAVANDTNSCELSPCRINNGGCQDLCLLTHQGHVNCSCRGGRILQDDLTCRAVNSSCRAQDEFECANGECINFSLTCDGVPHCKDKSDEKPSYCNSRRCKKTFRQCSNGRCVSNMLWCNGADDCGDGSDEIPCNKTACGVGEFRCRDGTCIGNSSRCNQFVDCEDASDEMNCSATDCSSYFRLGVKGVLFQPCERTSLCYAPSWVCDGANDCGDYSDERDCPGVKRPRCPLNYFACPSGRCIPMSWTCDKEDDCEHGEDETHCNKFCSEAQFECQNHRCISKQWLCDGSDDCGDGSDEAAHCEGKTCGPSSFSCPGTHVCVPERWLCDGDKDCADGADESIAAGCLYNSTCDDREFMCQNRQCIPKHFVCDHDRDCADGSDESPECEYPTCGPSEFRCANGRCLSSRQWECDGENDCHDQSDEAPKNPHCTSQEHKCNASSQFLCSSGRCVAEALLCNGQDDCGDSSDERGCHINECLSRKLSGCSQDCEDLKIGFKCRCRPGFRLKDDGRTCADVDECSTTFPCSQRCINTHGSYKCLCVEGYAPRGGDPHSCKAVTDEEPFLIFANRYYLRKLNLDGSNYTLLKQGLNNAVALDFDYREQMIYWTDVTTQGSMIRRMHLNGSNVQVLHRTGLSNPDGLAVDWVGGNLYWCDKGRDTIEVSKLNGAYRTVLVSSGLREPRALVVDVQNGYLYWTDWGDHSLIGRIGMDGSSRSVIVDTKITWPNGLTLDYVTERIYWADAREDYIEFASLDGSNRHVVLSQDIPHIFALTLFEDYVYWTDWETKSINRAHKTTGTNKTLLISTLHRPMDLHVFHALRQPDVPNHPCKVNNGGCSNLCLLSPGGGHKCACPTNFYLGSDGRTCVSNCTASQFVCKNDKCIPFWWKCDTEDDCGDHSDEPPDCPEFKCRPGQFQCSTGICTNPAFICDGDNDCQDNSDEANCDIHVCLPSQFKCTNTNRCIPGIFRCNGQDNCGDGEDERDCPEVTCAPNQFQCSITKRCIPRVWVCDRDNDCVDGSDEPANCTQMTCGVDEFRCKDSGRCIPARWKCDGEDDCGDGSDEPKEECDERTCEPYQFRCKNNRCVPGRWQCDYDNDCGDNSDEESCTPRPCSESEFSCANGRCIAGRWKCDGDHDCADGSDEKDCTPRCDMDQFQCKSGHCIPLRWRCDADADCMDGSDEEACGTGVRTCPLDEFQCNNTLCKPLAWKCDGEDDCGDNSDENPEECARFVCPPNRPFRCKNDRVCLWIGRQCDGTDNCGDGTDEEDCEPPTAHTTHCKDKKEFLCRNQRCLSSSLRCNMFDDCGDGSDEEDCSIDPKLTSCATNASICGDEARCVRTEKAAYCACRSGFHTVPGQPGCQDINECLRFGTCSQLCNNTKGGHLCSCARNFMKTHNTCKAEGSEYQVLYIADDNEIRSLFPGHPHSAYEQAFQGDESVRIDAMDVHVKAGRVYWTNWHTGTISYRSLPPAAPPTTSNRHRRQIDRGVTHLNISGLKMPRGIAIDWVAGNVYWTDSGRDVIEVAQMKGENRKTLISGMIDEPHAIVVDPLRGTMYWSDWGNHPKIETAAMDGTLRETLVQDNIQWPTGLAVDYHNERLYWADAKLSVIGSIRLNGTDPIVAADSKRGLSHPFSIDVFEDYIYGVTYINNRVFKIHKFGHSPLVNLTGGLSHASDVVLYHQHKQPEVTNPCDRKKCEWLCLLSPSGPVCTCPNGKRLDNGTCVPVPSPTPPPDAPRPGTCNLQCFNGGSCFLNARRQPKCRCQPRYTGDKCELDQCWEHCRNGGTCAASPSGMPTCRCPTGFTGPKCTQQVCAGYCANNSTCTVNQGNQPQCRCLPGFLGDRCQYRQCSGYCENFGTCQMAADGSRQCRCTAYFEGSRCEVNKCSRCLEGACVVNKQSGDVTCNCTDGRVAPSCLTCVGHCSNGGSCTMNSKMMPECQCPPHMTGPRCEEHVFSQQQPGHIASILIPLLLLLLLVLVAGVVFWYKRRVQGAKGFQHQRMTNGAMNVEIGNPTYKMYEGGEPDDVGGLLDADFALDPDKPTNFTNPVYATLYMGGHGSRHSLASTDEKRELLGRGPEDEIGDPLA

Binder	fold decrease of affinity against wt-A2 [fold]
B1	7
B2	5

These binders were tested against T1, A1/A3-C1-C2 heterodimer of factor VIII, … (assay: cell-based or functional assay).

Binder	Activity of reconstituted FVIIIa (% of wt activity)
B3	100 % of wt activity
B4	518 % of wt activity
B5	219 % of wt activity
B6	390 % of wt activity
B7	128 % of wt activity
B8	263 % of wt activity
B9	267 % of wt activity
B10	242 % of wt activity
B1	130 % of wt activity
B2	87.9 % of wt activity
B11	73.9 % of wt activity
B12	151 % of wt activity
B13	196 % of wt activity
B14	91.5 % of wt activity
B15	232 % of wt activity

These binders were tested against T2, low-density lipoprotein … (assay: SPR, BIAcore 3000, one-site model, KD = koff/kon).
Excerpt: as §1

Binder	Kd [nM]
B3	21
B4	21
B5	21
B6	41
B7	33
B8	9.5
B9	18
B10	51
B1	150
B2	97
B11	25.5
B12	59
B13	33
B14	29
B15	67

These binders were tested against T2, low-density lipoprotein … (assay: heterologous displacement of ^125I-fVIII (1 nM) from LRP-coated wells).
Method: (§2) FIGS. 15A-15B. […] Each point represents the mean value of triplicates and the error bars display the standard deviation. The curves show a best fit of the data to a model describing heterologous ligand displacement from a single class of binding sites using the program LIGAND.
(§3) Solid-phase binding assays. […] Microtiter wells were coated with purified LRP or BSA (3 μg/ml) in 50 mM Tris, 0.15 M NaCl, pH 8.0, for 16 h and then blocked with 3% BSA in TBS. […] The radioactivity bound to the wells was counted using a γ-counter (Pharmacia). Affinity constants were derived from homologous and heterologous displacement data using the computer program LIGAND (Munson, P T and Rodbard, D. Anal. Biochem. 107:220-239 (1980)).

Binder	Ki [nM]
B16	2.5

The binders below were run against T2, low-density lipoprotein … (assay: competition: peptide 484-509 varied, competitor 125I-fVIII, LRP-coated microtiter wells).
Method: FIGS. 17A-17B. […] The mean and standard deviation of the triplicate measurements are presented.
as §3

Binder	IC50 (read off the curve) [nM]
RPLYSRRLPKGVKHLKDFPILPGEIF [synthetic A2 domain peptide 484-509]	~1000

What follows are binders tested against T2, low-density lipoprotein … (assay: heterologous ligand displacement: RAP varied, competitor 125I-fVIII (1 nM), LRP-coated microtiter wells).
Method: as §2, §3

Binder	IC50 (read off the curve) [nM]
B16	~2
